± gives the standard deviation of the averaged measurements.
Key:
Saccharomyces cerevisiae [1] = test: protein stability index of tFT-peptide fusion (C-terminal peptide) (PSI (0-1 scale)); higher = more stable (slower turnover); conditions: genetic background: wild type; temperature: 30 C
Saccharomyces cerevisiae [2] = test: as above
Procedure: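 MPS profiling in S. cerevisiae of the tFT-X12 degron library: putative degron peptides plus stable controls, 12 aa, fused to the C-terminus of a sfGFP-mCherry timer. Cells are FACS-sorted into 8 mCherry/sfGFP bins and deep-sequenced. PSI runs from 0 (unstable) to 1 (stable). Backgrounds are wild type, das1Δ and doa10Δ at 30 °C, and wild type, das1Δ, cdc34-1 and cdc53-1 at 37 °C; 2-3 technical replicates each.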

[3] = genetic background: cdc34-1, temperature: 37 C
[4] = genetic background: cdc53-1, temperature: 37 C
[5] = genetic background: das1 deletion, temperature: 30 C
[6] = genetic background: das1 deletion, temperature: 37 C
[7] = genetic background: doa10 deletion, temperature: 30 C
[8] = genetic background: wild type, temperature: 30 C
[9] = genetic background: wild type, temperature: 37 C
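Further: PSI is a weighted mean of sequencing reads over stability bins, variants kept only with over 10 reads, mCherry proximal and sfGFP distal, peptide attached via GGGS linker.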

Row | Sequence | protein stability index (Saccharomyces cerevisiae [1]) | protein stability index (Saccharomyces cerevisiae [2]; [3]) | protein stability index (Saccharomyces cerevisiae [2]; [4]) | protein stability index (Saccharomyces cerevisiae [2]; [5]) | protein stability index (Saccharomyces cerevisiae [2]; [6]) | protein stability index (Saccharomyces cerevisiae [2]; [7]) | protein stability index (Saccharomyces cerevisiae [2]; [8]) | protein stability index (Saccharomyces cerevisiae [2]; [9])
1 | TIRKCIIKWIKI | 0.368 ± 0.016 | 0.591 ± 0.032 | 0.581 ± 0.031 | 0.475 ± 0.021 | 0.596 ± 0.029 | 0.174 ± 0.0094 | 0.189 ± 0.036 | 0.398 ± 0.024
2 | WFVCSGVYGSVM | 0.692 ± 0.013 | 0.676 ± 0.0086 | 0.749 ± 0.02 | 0.682 ± 0.094 | 0.758 ± 0.035 | 0.6528 ± 0.0019 | 0.638 ± 0.026 | 0.721 ± 0.0092
3 | LHLLFLPFVVCL | 0.108 ± 0.02 | 0.212 ± 0.017 | 0.2458 ± 0.0015 | 0.216 ± 0.037 | 0.348 ± 0.027 | 0.0556 ± 0.012 | 0.0711 ± 0.025 | 0.113 ± 0.014
4 | VFLCFSWHFFLF | 0.405 ± 0.012 | 0.4543 ± 0.0039 | 0.591 ± 0.035 | 0.411 ± 0.037 | 0.559 ± 0.036 | 0.297 ± 0.0049 | 0.304 ± 0.029 | 0.467 ± 0.011
5 | VGVYVWRGVLWA | 0.296 ± 0.044 | 0.277 ± 0.025 | 0.402 ± 0.035 | 0.257 ± 0.024 | 0.444 ± 0.0077 | 0.184 ± 0.0022 | 0.218 ± 0.028 | 0.397 ± 0.024
6 | CFFPLFLCTAFC | 0.425 ± 0.017 | 0.465 ± 0.027 | 0.4713 ± 0.0024 | 0.394 ± 0.023 | 0.513 ± 0.011 | 0.387 ± 0.0062 | 0.39 ± 0.0053 | 0.492 ± 0.022
7 | VFCLPISAPPLH | 0.685 ± 0.023 | 0.679 ± 0.0083 | 0.739 ± 0.022 | 0.642 ± 0.023 | 0.727 ± 0.0031 | 0.626 ± 0.02 | 0.635 ± 0.019 | 0.7027 ± 0.0031
8 | LCFLVALASMLF | 0.504 ± 0.01 | 0.5426 ± 0.0019 | 0.579 ± 0.038 | 0.472 ± 0.036 | 0.549 ± 0.018 | 0.4385 ± 0.0032 | 0.462 ± 0.026 | 0.5246 ± 0.00074
9 | GFRVPVVVGVRG | 0.432 ± 0.0044 | 0.449 ± 0.023 | 0.475 ± 0.03 | 0.334 ± 0.041 | 0.531 ± 0.0077 | 0.2939 ± 0.0024 | 0.33 ± 0.042 | 0.4999 ± 0.0013
10 | ASPLRLFIPFLF | 0.312 ± 0.058 | 0.678 ± 0.071 | 0.76 ± 0.017 | 0.632 ± 0.034 | 0.755 ± 0.036 | 0.192 ± 0.0066 | 0.211 ± 0.026 | 0.413 ± 0.0079
11 | LILFMLLSFLTT | 0.373 ± 0.032 | 0.371 ± 0.013 | 0.409 ± 0.042 | 0.294 ± 0.028 | 0.419 ± 0.018 | 0.281 ± 0.016 | 0.293 ± 0.025 | 0.3954 ± 0.0026
12 | RDRHFKIQTCIM | 0.388 ± 0.0046 | 0.662 ± 0.016 | 0.721 ± 0.017 | 0.648 ± 0.02 | 0.717 ± 0.014 | 0.24 ± 0.017 | 0.246 ± 0.039 | 0.515 ± 0.035
13 | FLIFFVCLFRWK | 0.328 ± 0.0066 | 0.185 ± 0.0059 | 0.243 ± 0.0062 | 0.231 ± 0.023 | 0.3191 ± 0.0023 | 0.21 ± 0.025 | 0.235 ± 0.029 | 0.301 ± 0.0041
14 | SFFCTRVLWVFQ | 0.157 ± 0.023 | 0.534 ± 0.017 | 0.612 ± 0.025 | 0.539 ± 0.022 | 0.6285 ± 0.0029 | 0.0925 ± 0.004 | 0.0846 ± 0.027 | 0.149 ± 0.029
15 | SPAIRAILAPAG | 0.445 ± 0.034 | 0.476 ± 0.059 | 0.504 ± 0.013 | 0.404 ± 0.021 | 0.546 ± 0.0073 | 0.402 ± 0.014 | 0.43 ± 0.036 | 0.532 ± 0.0079
16 | SHWSMQATLQLV | 0.469 ± 0.016 | 0.617 ± 0.046 | 0.694 ± 0.025 | 0.568 ± 0.021 | 0.6866 ± 0.0046 | 0.443 ± 0.034 | 0.468 ± 0.011 | 0.601 ± 0.012
17 | RSPIRYPPVVLS | 0.518 ± 0.07 | 0.698 ± 0.038 | 0.753 ± 0.011 | 0.645 ± 0.021 | 0.7493 ± 0.0034 | 0.539 ± 0.021 | 0.539 ± 0.008 | 0.6895 ± 0.0015
18 | CVYGILLLVDVR | 0.189 ± 0.0074 | 0.0231 ± 0.00051 | 0.0547 ± 0.039 | 0.106 ± 0.032 | 0.128 ± 0.005 | 0.0714 ± 0.034 | 0.0971 ± 0.018 | 0.143 ± 0.066
19 | LLFLWVLFLPFA | 0.363 ± 0.045 | 0.4449 ± 0.00067 | 0.469 ± 0.005 | 0.346 ± 0.036 | 0.5234 ± 0.0037 | 0.361 ± 0.012 | 0.342 ± 0.026 | 0.472 ± 0.0041
20 | GVKSQLYSFVWF | 0.45 ± 0.015 | 0.6552 ± 0.0036 | 0.74 ± 0.015 | 0.633 ± 0.023 | 0.747 ± 0.013 | 0.3088 ± 0.0017 | 0.352 ± 0.018 | 0.593 ± 0.014

Row | Sequence | protein stability index (Saccharomyces cerevisiae [1]) | protein stability index (Saccharomyces cerevisiae [2]; [3]) | protein stability index (Saccharomyces cerevisiae [2]; [4]) | protein stability index (Saccharomyces cerevisiae [2]; [5]) | protein stability index (Saccharomyces cerevisiae [2]; [6]) | protein stability index (Saccharomyces cerevisiae [2]; [7]) | protein stability index (Saccharomyces cerevisiae [2]; [8]) | protein stability index (Saccharomyces cerevisiae [2]; [9])
21 | AFAFLLHRFLLV | 0.148 ± 0.017 | 0.493 ± 0.058 | 0.55 ± 0.0057 | 0.477 ± 0.018 | 0.584 ± 0.0064 | 0.103 ± 0.0047 | 0.11 ± 0.012 | 0.142 ± 0.011
22 | CYFLFFLSYSLE | 0.297 ± 0.0097 | 0.237 ± 0.0066 | 0.343 ± 0.045 | 0.231 ± 0.05 | 0.455 ± 0.019 | 0.194 ± 0.039 | 0.226 ± 0.029 | 0.439 ± 0.0046
23 | TCVTLRYRLTFE | 0.508 ± 0.11 | 0.638 ± 0.11 | 0.666 ± 0.027 | 0.564 ± 0.022 | 0.667 ± 0.043 | 0.585 ± 0.04 | 0.522 ± 0.025 | 0.621 ± 0.02
24 | ISVSFSVIFFLL | 0.154 ± 0.044 | 0.266 ± 0.0073 | 0.398 ± 0.019 | 0.372 ± 0.019 | 0.4778 ± 0.0024 | 0.0751 ± 0.0046 | 0.0951 ± 0.01 | 0.137 ± 0.002
25 | VASYVCIGVVWV | 0.351 ± 0.035 | 0.4298 ± 0.0038 | 0.492 ± 0.061 | 0.301 ± 0.023 | 0.497 ± 0.025 | 0.262 ± 0.0045 | 0.299 ± 0.02 | 0.456 ± 0.01
26 | FFFFFLLFFLRV | 0.303 ± 0.04 | 0.229 ± 0.027 | 0.247 ± 0.007 | 0.303 ± 0.046 | 0.343 ± 0.018 | 0.313 ± 0.005 | 0.233 ± 0.018 | 0.313 ± 0.0043
27 | LLISPFLFLLVC | 0.0803 ± 0.024 | 0.0704 ± 0.043 | 0.0371 ± 0.002 | 0.0907 ± 0.02 | 0.0981 ± 0.022 | 0.0594 ± 0.018 | 0.0605 ± 0.014 | 0.0515 ± 0.00088
28 | WWVAGLGSSGGG | 0.7348 ± 0.0046 | 0.738 ± 0.016 | 0.77959 ± 0.00011 | 0.663 ± 0.026 | 0.788 ± 0.0094 | 0.686 ± 0.031 | 0.677 ± 0.0094 | 0.765 ± 0.026
29 | SHPFIRSLVFLA | 0.103 ± 0.037 | 0.43 ± 0.015 | 0.6729 ± 0.0026 | 0.629 ± 0.008 | 0.721 ± 0.02 | 0.0816 ± 0.008 | 0.0711 ± 0.0057 | 0.0908 ± 0.014
30 | LFDVLFVFSFIF | 0.449 ± 0.045 | 0.4681 ± 0.0013 | 0.524 ± 0.006 | 0.413 ± 0.017 | 0.535 ± 0.015 | 0.432 ± 0.034 | 0.42 ± 0.024 | 0.503 ± 0.019
31 | SFHTFFCPFFIL | 0.205 ± 0.024 | 0.53 ± 0.051 | 0.6678 ± 0.0037 | 0.645 ± 0.038 | 0.713 ± 0.032 | 0.189 ± 0.0043 | 0.168 ± 0.023 | 0.288 ± 0.022
32 | GGGGGGGGGGVG | 0.514 ± 0.045 | 0.313 ± 0.019 | 0.427 ± 0.044 | 0.397 ± 0.014 | 0.457 ± 0.057 | 0.391 ± 0.004 | 0.387 ± 0.024 | 0.446 ± 0.03
33 | RSRRNRYSRKIA | 0.184 ± 0.013 | 0.506 ± 0.024 | 0.659 ± 0.031 | 0.696 ± 0.043 | 0.6959 ± 0.0048 | 0.0765 ± 0.034 | 0.0787 ± 0.024 | 0.141 ± 0.03
34 | CVARWPRPAGSS | 0.723 ± 0.026 | 0.699 ± 0.035 | 0.735 ± 0.047 | 0.655 ± 0.015 | 0.729 ± 0.0097 | 0.641 ± 0.017 | 0.673 ± 0.035 | 0.715 ± 0.015
35 | YSVFCPLFFIIY | 0.379 ± 0.014 | 0.3507 ± 0.0014 | 0.323 ± 0.006 | 0.298 ± 0.04 | 0.458 ± 0.013 | 0.351 ± 0.014 | 0.283 ± 0.02 | 0.433 ± 0.0062
36 | PAPQAVRIFSLY | 0.428 ± 0.046 | 0.62 ± 0.089 | 0.74 ± 0.026 | 0.653 ± 0.044 | 0.744 ± 0.026 | 0.179 ± 0.01 | 0.183 ± 0.022 | 0.39 ± 0.019
37 | FVGVVCILWLVG | 0.356 ± 0.011 | 0.177 ± 0.0044 | 0.33 ± 0.0064 | 0.252 ± 0.022 | 0.405 ± 0.0085 | 0.153 ± 0.017 | 0.176 ± 0.026 | 0.318 ± 0.073
38 | CWDNTLKTMRQM | 0.228 ± 0.1 | 0.67 ± 0.0063 | 0.732 ± 0.022 | 0.655 ± 0.042 | 0.7322 ± 0.0059 | 0.307 ± 0.015 | 0.333 ± 0.018 | 0.5969 ± 0.0032
39 | GMGRVLVEVLLC | 0.165 ± 0.029 | 0.293 ± 0.0086 | 0.451 ± 0.036 | 0.317 ± 0.033 | 0.5187 ± 0.0023 | 0.0999 ± 0.0047 | 0.101 ± 0.021 | 0.0812 ± 0.017

From the supplement of paper PMC10724198
